Patent US20190270826A1
Values joined by “and” are separate entries in the source; they are usually repeats but may differ in a detail not shown here. Equal values may be shown once.

Assays:
human FcRn (human) = human FcRn (human) (UniProt P55899); experiment: AlphaScreen competition, human FcRn (n=1); displaced: biotinylated control mAb B21M WT IgG1 (m27); pH 6.0
human FcγRI (human) = human FcγRI (human) (UniProt P12314); experiment: AlphaScreen competition, human FcγRI (n=1); displaced: biotinylated control mAb B21M hIgG1 AlaAla; pH 7.2
[1] = target: recombinant human IL1RAP ECD (human) (UniProt Q9NPH3); experiment: SPR (ProteOn)
Chain of recombinant human IL1RAP ECD (human) (Q9NPH3 other isoform, or with tags, fused parts or gaps): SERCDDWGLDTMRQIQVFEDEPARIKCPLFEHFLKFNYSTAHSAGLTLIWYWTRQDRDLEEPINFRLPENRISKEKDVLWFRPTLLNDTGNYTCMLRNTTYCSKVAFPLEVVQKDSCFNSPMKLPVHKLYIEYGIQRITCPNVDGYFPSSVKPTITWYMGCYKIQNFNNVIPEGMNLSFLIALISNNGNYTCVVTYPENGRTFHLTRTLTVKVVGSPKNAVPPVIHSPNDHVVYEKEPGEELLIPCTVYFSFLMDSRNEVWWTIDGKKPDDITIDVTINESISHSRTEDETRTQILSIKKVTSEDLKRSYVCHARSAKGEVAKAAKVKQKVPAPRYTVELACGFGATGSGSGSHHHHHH

Chain of human FcγRI (human) (P12314 16-292 limits assumed): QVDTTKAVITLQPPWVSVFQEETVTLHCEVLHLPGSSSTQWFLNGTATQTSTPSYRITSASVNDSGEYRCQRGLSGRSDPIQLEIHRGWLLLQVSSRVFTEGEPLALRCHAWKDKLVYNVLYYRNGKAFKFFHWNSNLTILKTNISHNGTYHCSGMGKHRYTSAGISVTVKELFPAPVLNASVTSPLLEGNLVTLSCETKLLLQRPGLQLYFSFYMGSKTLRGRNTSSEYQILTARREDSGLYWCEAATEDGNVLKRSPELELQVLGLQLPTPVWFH

IC50 (read off the curve) (human FcRn (human)) | IC50 (read off the curve) (human FcγRI (human)) | Kd [1] | koff [1] | kon [1] | Substance
200 nM | – | – | – | – | Human IgG4-PAA isotype control (antibody)
90 nM | 3 nM | – | – | – | wild type hIgG1 (antibody)
– | – | 1.42 nM and 1.21 nM | 0.000369 s⁻¹ and 0.000336 s⁻¹ | 260000 M⁻¹ s⁻¹ and 277000 M⁻¹ s⁻¹ | anti-human/cyno IL1RAP, mouse IgG1, R&D #MAB676 (antibody)
